# From patent US9187525B2, “Methods of treating ophthalmic diseases using NPR-B agonists” (Shire Orphan Therapies GmbH, dated 2015)
# Numbered stars: 1 amine (or outer) side, 2 acyl side, 3 side chain; on linkers, the order of the positions; unused ones are H or OH. Square brackets hold non-standard residues; d marks the D form. Ends that are not written are not given here. * marks the point of attachment. Tap(Ae) = (2S,4R)-4-(2-aminoethylamino)pyrrolidine-2-carboxylic acid, O=C([C@@H]1C[C@@H](NCCN[*:3])CN1[*:1])[*:2]; dap(6263)2 = (R)-2-amino-3-(bis(2-aminoethyl)amino)propanoic acid, NCCN(CCN[*:3])C[C@@H](N[*:1])C(=O)[*:2]; Tap(Ap) = 4-(3-amino-propylamino)-pyrrolidine-2-carboxylic acid; Pro(trans-4-NH2) = O=C([C@@H]1C[C@@H](N[*:3])CN1[*:1])[*:2]; Sni = (S)-nipecotic acid, O=C([C@H]1CCCN([*:1])C1)[*:2]; Eat = 2,3-dihydro-1H-indole-2-carboxylic acid; Oic = O=C(O)[C@@H]1C[C@@H]2CCCC[C@@H]2N1; dDap(Me2) = CN(C)C[C@@H](N)C(=O)O; Hyp = O=C(O)[C@@H]1C[C@@H](O)CN1; Dap(Me2) = CN(C)C[C@H](N)C(=O)O; Tic = O=C(O)[C@@H]1Cc2ccccc2CN1; NMeL = CN[C@@H](CC(C)C)C(=O)O; AR‑201‑58 = not defined here; AR‑201‑62 = not defined here; AR‑201‑68 = not defined here; AR‑201‑69 = not defined here; AR‑201‑72 = not defined here; AR‑201‑73 = not defined here; Pip = O=C(O)[C@@H]1CCCCN1; Octanoyl = CCCCCCCC(=O)*; Thz = O=C(O)[C@@H]1CSCN1; Aze = O=C(O)[C@@H]1CCN1; Nbt = 4-butyl-thiazole; Sbt = 5-butyl-thiazole; Occ = octanoic acid
# T1: natriuretic peptide receptor-B (human)
# T1 chain: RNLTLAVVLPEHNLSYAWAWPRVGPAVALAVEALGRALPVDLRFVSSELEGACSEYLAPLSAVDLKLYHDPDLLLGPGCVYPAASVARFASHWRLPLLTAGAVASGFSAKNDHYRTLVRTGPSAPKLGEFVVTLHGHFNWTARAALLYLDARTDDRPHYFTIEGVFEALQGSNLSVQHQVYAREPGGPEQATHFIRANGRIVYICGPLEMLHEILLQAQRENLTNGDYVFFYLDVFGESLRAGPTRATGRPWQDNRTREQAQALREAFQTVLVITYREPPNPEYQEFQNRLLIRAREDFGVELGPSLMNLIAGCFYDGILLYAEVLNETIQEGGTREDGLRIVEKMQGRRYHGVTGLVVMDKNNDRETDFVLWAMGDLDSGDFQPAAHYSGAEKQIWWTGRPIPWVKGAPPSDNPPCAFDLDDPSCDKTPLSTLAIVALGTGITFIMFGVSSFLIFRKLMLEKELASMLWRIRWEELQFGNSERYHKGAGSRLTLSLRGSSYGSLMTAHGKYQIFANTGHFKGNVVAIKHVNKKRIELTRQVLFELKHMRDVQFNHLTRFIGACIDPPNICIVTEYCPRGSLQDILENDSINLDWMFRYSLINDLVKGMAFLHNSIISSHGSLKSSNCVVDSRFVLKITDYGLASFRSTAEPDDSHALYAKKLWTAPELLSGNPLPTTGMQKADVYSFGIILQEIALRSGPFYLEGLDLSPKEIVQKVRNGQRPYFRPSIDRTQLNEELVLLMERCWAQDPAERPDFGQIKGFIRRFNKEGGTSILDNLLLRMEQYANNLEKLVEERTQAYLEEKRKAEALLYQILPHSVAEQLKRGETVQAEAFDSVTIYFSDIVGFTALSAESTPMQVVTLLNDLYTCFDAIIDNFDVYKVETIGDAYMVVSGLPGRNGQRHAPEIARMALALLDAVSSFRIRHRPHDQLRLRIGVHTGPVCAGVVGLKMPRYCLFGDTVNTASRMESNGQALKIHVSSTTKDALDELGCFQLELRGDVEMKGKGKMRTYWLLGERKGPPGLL
# B1: JAL-0650 (peptide)
# peptide: XXFGLKLDRI
# HELM: PEPTIDE1{[CCCCCC(=O)[*:2]].[O=C(Cc1ccc(N[*:1])cc1)[*:2]].F.G.L.K.L.D.R.I.[am]}$$$$V2.0
# SMILES: CCCCCC(=O)Nc1ccc(CC(=O)N[C@@H](Cc2ccccc2)C(=O)NCC(=O)N[C@@H](CC(C)C)C(=O)N[C@@H](CCCCN)C(=O)N[C@@H](CC(C)C)C(=O)N[C@@H](CC(=O)O)C(=O)N[C@@H](CCCNC(=N)N)C(=O)N[C@H](C(N)=O)[C@@H](C)CC)cc1
# B2: JAL-1374 (peptide)
# peptide: [AR‑201‑62]F[dL]L[Hyp][NMeL]DRI-NH2
# modifications: reading uncertain; also: printed as (AR-201-62)-Phe-leu-Leu-Hyp-Nml-Asp-Arg-Ile-NH2
# B3: JAL-0649 (peptide)
# peptide: XXFGLKLDRI
# HELM: PEPTIDE1{[CCCCCC(=O)[*:2]].[O=C(Cc1cccc(N[*:1])c1)[*:2]].F.G.L.K.L.D.R.I.[am]}$$$$V2.0
# SMILES: CCCCCC(=O)Nc1cccc(CC(=O)N[C@@H](Cc2ccccc2)C(=O)NCC(=O)N[C@@H](CC(C)C)C(=O)N[C@@H](CCCCN)C(=O)N[C@@H](CC(C)C)C(=O)N[C@@H](CC(=O)O)C(=O)N[C@@H](CCCNC(=N)N)C(=O)N[C@H](C(N)=O)[C@@H](C)CC)c1
# B4: JAL-1373 (peptide)
# peptide: [AR‑201‑58]F[dL]L[Hyp][NMeL]DRI-NH2
# modifications: reading uncertain; also: printed as (AR-201-58)-Phe-leu-Leu-Hyp-Nml-Asp-Arg-Ile-NH2
# B5: JAL-1380 (peptide)
# peptide: [AR‑201‑68]F[dL]L[Hyp][NMeL]DRI-NH2
# modifications: reading uncertain; also: printed as (AR-201-68)-Phe-leu-Leu-Hyp-Nml-Asp-Arg-Ile-NH2
# B6: JAL-0648 (peptide)
# peptide: XXFGLKLDRI
# HELM: PEPTIDE1{[CCCCCC(=O)[*:2]].[O=C(c1ccc(CN[*:1])cc1)[*:2]].F.G.L.K.L.D.R.I.[am]}$$$$V2.0
# SMILES: CCCCCC(=O)NCc1ccc(C(=O)N[C@@H](Cc2ccccc2)C(=O)NCC(=O)N[C@@H](CC(C)C)C(=O)N[C@@H](CCCCN)C(=O)N[C@@H](CC(C)C)C(=O)N[C@@H](CC(=O)O)C(=O)N[C@@H](CCCNC(=N)N)C(=O)N[C@H](C(N)=O)[C@@H](C)CC)cc1
# B7: JAL-1378 (peptide)
# peptide: [AR‑201‑73]F[dL]L[Hyp][NMeL]DRI-NH2
# modifications: reading uncertain; also: printed as (AR-201-73)-Phe-leu-Leu-Hyp-Nml-Asp-Arg-Ile-NH2
# B8: JAL-1379 (peptide)
# peptide: [AR‑201‑73]F[dR]L[Hyp][NMeL]DRI-NH2
# modifications: reading uncertain; also: printed as (AR-201-73)-Phe-arg-Leu-Hyp-Nml-Asp-Arg-Ile-NH2
# B9: JAL-1375 (peptide)
# peptide: [AR‑201‑69]F[dL]L[Hyp][NMeL]DRI-NH2
# modifications: reading uncertain; also: printed as (AR-201-69)-Phe-leu-Leu-Hyp-Nml-Asp-Arg-Ile-NH2
# B10: JAL-1377 (peptide)
# peptide: [AR‑201‑72]F[dR]L[Hyp][NMeL]DRI-NH2
# modifications: reading uncertain; also: printed as (AR-201-72)-Phe-arg-Leu-Hyp-Nml-Asp-Arg-Ile-NH2
# B11: JAL-1381 (peptide)
# peptide: [AR‑201‑68]F[dR]L[Hyp][NMeL]DRI-NH2
# modifications: reading uncertain; also: printed as (AR-201-68)-Phe-arg-Leu-Hyp-Nml-Asp-Arg-Ile-NH2
# B12: JAL-1376 (peptide)
# peptide: [AR‑201‑72]F[dL]L[Hyp][NMeL]DRI-NH2
# modifications: reading uncertain; also: printed as (AR-201-72)-Phe-leu-Leu-Hyp-Nml-Asp-Arg-Ile-NH2
# Target: T1, natriuretic peptide receptor-B
# Experiment: cell-based or functional assay
row,"EC50 group, cGMP in GTM-3 cells [µM]",Binder
1,≤ 5,Nbt-[Sni]F[dL]L[Hyp][NMeL]DRI-NH2 [JAL-1383]
2,≤ 5,[Occ][Sni]F[dap(6263)2]L[Pro(trans-4-NH2)][NMeL]DRI-NH2 [JAL-1370]
3,≤ 15,Octanoyl-[dA]F[dR]L[Hyp][Pip]DRI-NH2 [JAL-1365]
4,≤ 1,Octanoyl-[dA]F[dL]L[Hyp][Dap(Me2)]DRI-NH2 [JAL-1367]
5,≤ 15,Octanoyl-[dA]F[dR]L[Hyp][Thz]DRI-NH2 [JAL-1395]
6,≤ 1,Sbt-[Sni]F[dL]L[Hyp][NMeL]DRI-NH2 [JAL-1382]
7,≤ 15,Octanoyl-[dA]F[dR]L[Hyp]PDRI-NH2 [JAL-1387]
8,≤ 15,Octanoyl-[dA]F[dR]L[Hyp][Eat]DRI-NH2 [JAL-1394]
9,≤ 5,Octanoyl-[dA]F[dR]L[Hyp][Tic]DRI-NH2 [JAL-1396]
10,≤ 15,B1
11,≤ 5,B2
12,≤ 5,Octanoyl-[dA]F[dR]L[Hyp][Oic]DRI-NH2 [JAL-1364]
13,≤ 15,B3
14,≤ 5,B4
15,≤ 1,B5
16,≤ 5,Octanoyl-[dA]F[dL]L[Hyp][Pip]DRI-NH2 [JAL-1366]
17,≤ 1,Octanoyl-[Sni]F[dL]L[Hyp][NMeL]VRI-NH2 [JAL-1398]

row,"EC50 group, cGMP in GTM-3 cells [µM]",Binder
1,≤ 15,B6
2,≤ 5,B7
3,≤ 5,B8
4,≤ 1,Octanoyl-[Sni]F[dDap(Me2)]L[Pro(trans-4-NH2)][NMeL]DRI-NH2 [JAL-1369]
5,≤ 5,B9
6,≤ 5,Octanoyl-[Sni]F[dL]L[Hyp][NMeL]VRI-NH2 [JAL-1399]
7,≤ 1,Octanoyl-[Sni]F[dL]L[Tap(Ap)][NMeL]DRI-NH2 [JAL-1372]
8,≤ 5,Octanoyl-[dA]F[dL]L[Hyp][Oic]DRI-NH2 [JAL-1386]
9,≤ 15,B10
10,≤ 15,Octanoyl-[Sni]F[dDap(Me2)]L[Hyp][NMeL]VRI-NH2 [JAL-1400]
11,≤ 15,Octanoyl-[dA]F[dR]L[Hyp][Aze]DRI-NH2 [JAL-1393]
12,≤ 5,Octanoyl-[dA]F[dL]L[Hyp][NMeL]IRI-NH2 [JAL-1363]
13,≤ 5,B11
14,≤ 15,B12
15,≤ 1,Octanoyl-[Sni]F[dL]L[Tap(Ae)][NMeL]DRI-NH2 [JAL-1371]
16,≤ 5,Octanoyl-[dA]F[dL][Dap(Me2)][Hyp][NMeL]DRI-NH2 [JAL-1368]
